This assay deals with human MUC17 (huMUC17), membrane form (human, UniProt Q685J3 26-4493). Nature of the assay: immunohistochemistry on tissue sections.

B1: anti-huMUC17 4C11 IHC antibody (antibody, mouse IgG2a, kappa, V domains shown)
VH: EVQLQQSGPELVKPGDSVKISCKASGYSFTGNFLNWVMQSHGKSLEWIGRITPYSGETFYNQKFKDKATLTVDISSSIAHMELRSLTSEDSAVYYCARGVTTEVSHYYAMDYWGQGTAVTVSS
VL: DIQMNQSPSSLSASLGDTITITCHASQNINLWLHWYQQKPGNIPKLLIFKASNLHTGVPLRFSGSGSGTGFTLTISSLQPEDIATYFCQQGQSYPLTFGGGTKLEIKR
notes: Mouse hybridoma-derived monoclonal antibody; also called 4C11 antibody; the antibody of the invention
As for B1, the binding result was “binds”.

For the origin of these results see patent US20230129844A1 (Amgen, published 2023).
